Source: patent CN113583114A (YANG SHENG TANG CO LTD; UNIV XIAMEN, dated 2021)

B1: 人源单克隆抗体3C11 (antibody, V domains shown)
VH: EVQLVESGGGLVQPGGSLRLSCAASGFTVSRNYMSWVRQAPGKGLEWVSVIYSGGSTYYADSVKGRFTISRDNSKNTLYLQMNSLRAEDTAVYYCARGLVASYRYGMDVWGQGTTVTVSS
VL: DIQMTQSPVSLSASIGDRVTITCQASQDITNYLNWYQQKPGKAPKLLIYDASNLETGVPSRFSGSGSGTDFTFTISSLQPEDIATYYCHQYDNLPVTFGGGTKVEIK
B2: 人源单克隆抗体5C6 (antibody, V domains shown)
VH: EVQLVESGGGVVQPGRSLRLSCAASGFTFRTYAMHWVRQAPGKGLEWVAVMWNDGSNKYYADSVKGRFTISRDNSKNTLYLEMNSLRAEDTAVYYCAREGVAAAGSSSDAFDIWGQGTMVTVSS
VL: DIQMTQSPSSLSASVGDRVTITCRASQSISNFLNWYQQKPGKAPKLLIYAASSLQSGVPSRFSGSGSGTDFTLTISSLQPEDFATYYCQQSYSTLYSFGQGTKLEIK
B3: 人源单克隆抗体6G9 (antibody, V domains shown)
VH: QVQLVQSGAEVKKLGASVKVSCKASGYSFTDYYIHWVRQAPGQGLEWMGWINPISGGTNYAQKFQGRVTMTRDTSITTVYMELSRLRSDDTAVYYCARDLPPYNWNGPLRSQRFDCWGQGTLVTVSS
VL: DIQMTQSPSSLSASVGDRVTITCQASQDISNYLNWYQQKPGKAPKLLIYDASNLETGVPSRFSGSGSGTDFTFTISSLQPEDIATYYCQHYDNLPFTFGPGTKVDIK

Molecular target: SARS-CoV-2Sde18 (SARS-CoV-2 S蛋白, C末端截短18个氨基酸) on VSV pseudovirus SARS-CoV-2VSVpp (SARS-CoV-2, UniProt P0DTC2 14-1255)
Assay: cell-based or functional assay

Binder	假病毒感染阻断率	半抑制浓度(IC50), 假病毒中和 (GFP阳性细胞数减少)
B1	80 % (at 0.22 μg/mL)	62.9 ng/mL
B2	80 % (at 0.22 μg/mL)	4.06 ng/mL
B3	80 % (at 0.22 μg/mL)	0.56 ng/mL
